This test deals with Lyn kinase (mouse (endogenous in mouse brain)) (UniProt P25911). Nature of the test: pull-down.

pIC50: −log10 of the molar value.

Sequence of UniProt P25911 (P25911 whole entry): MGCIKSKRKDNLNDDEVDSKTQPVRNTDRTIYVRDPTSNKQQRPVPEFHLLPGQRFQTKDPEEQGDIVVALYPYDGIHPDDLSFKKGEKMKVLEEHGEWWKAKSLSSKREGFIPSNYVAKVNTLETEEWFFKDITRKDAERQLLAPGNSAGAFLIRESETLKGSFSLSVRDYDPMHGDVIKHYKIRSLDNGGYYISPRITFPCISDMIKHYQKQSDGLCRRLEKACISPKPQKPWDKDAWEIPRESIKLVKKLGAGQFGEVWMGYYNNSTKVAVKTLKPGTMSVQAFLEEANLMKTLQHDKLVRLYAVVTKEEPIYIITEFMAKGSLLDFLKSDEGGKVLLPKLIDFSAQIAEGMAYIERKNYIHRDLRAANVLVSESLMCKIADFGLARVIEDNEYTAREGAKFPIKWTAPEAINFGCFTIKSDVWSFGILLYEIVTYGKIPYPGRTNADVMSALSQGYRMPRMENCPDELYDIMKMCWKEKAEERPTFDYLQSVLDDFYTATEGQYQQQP

“TLR4-Lyn interacting modulator (TLIM) protein (domain or fragment)” showed a negative-log IC50 (pIC50) of 7.75.

A word on the pIC50: it is the IC50 on a negative log10 scale, so that one unit is a factor of ten. A lower pIC50 goes with a high IC50.
